Source: the Human Domainome abundance scans (Beltran et al. 2025)

B1: COUP transcription factor 1, residues 83 to 159; numbered along this chain, P10589 (parent)
chain: HIECVVCGDKSSGKHYGQFTCEGCKSFFKRSVRRNLTYTCRANRNCPIDQHHRNQCQYCRLKKCLKVGMRREAVQRG

Variants of: B1
Assay: abundance fitness (aPCA) (normalised: wild type 0, dead -1); higher = more abundant; growth selection in yeast, the domain comes from the species named
Details: Homo sapiens

Abundance fitness: each site, then its substitutions
C24: A -0.841 | W -0.707 | D -0.335 | P -0.609 | N -0.702 | Y -0.319 | T -0.885 | I -0.509 | K -0.697 | Q -1.04 | S -0.901 | L -0.841 | M -1.08 | R -0.795 | E -1.1
T39: W 0.057 | E 0.191 | D 0.12 | I -0.019 | V 0.013 | F 0.23 | Q 0.04 | S 0.113 | M -0.126 | G -0.099 | N 0.103 | P -0.359 | C -0.244 | R -0.108 | A 0.17 | K -0.083
E22: M 0.01 | R -0.504 | P -0.038 | V -0.064 | G 0.089 | L -0.089 | D -0.025 | I -0.495 | Y -0.342 | W -0.061 | Q 0.181 | F -0.226 | H -0.504
T20: G -0.242 | N -0.191 | A -0.051 | L -0.084 | W -0.058 | I 0.232 | S 0.067 | K -0.868 | F -0.106 | V 0.156 | C 0.163 | Y -0.165 | E -0.116 | H -0.541 | D -1.13 | M -0.079 | P -0.402 | Q -0.382
R33: T 0.096 | P -0.771 | M -0.045 | E 0.099 | W 0.068 | G -0.029 | C -0.698 | A 0.142 | L 0.109 | F -0.51 | K -0.022 | Q 0.272 | D 0.013 | I 0.086
Q18: W -0.459 | V 0.261 | Y -0.389
C21: D -1.03 | M -1.01 | K -0.818 | I -0.999 | A -0.707 | P -0.923 | T -0.742 | H -0.775 | Q -0.371 | E -0.929 | G -0.744 | R -0.845 | V -1.09 | L -0.9 | Y -0.974 | N -0.61 | S -0.757
F19: Y 0.352 | W -0.01 | S 0.032 | D -0.052 | R -0.098 | T -0.094 | Q 0.125 | H -0.037 | I -0.279 | G -0.53 | C -0.216 | A -0.101 | L -0.129 | E 0.166 | M -0.149 | V -0.269
K29: E 0.103 | F -0.147 | Q 0.03 | C -0.705 | H -0.048 | D 0.153 | R -0.181 | S -0.058 | A -0.079 | I -0.22 | W -0.149 | V 0.013 | T 0.026 | G 0.068 | M -0.055 | N -0.01 | L -0.186 | P -0.534
S31: L -0.571 | E -0.336 | C 0.075 | K -0.688 | W -0.185 | A 0.036 | V -0.155 | H -0.176 | G -0.598 | I 0.014 | T -0.027 | Y -0.169 | R -0.955 | Q 0.053
Y38: V -0.257 | M -0.059 | C -0.745 | Q -0.464 | T -0.669 | E -0.226 | I -0.24 | N -0.772 | D -0.509 | G -0.458 | F -0.089 | K -0.831 | S -0.791 | A -0.378 | R -0.662 | W -0.658 | P 0.094
S26: V 0.088 | G 0.238 | D -0.32 | M 0.298 | E 0.144 | Q 0.247
